Molecular target: T1, MpAgo D516A (Marinitoga piezophila, UniProt H2J4R4 1-639, D516A)
T1 sequence: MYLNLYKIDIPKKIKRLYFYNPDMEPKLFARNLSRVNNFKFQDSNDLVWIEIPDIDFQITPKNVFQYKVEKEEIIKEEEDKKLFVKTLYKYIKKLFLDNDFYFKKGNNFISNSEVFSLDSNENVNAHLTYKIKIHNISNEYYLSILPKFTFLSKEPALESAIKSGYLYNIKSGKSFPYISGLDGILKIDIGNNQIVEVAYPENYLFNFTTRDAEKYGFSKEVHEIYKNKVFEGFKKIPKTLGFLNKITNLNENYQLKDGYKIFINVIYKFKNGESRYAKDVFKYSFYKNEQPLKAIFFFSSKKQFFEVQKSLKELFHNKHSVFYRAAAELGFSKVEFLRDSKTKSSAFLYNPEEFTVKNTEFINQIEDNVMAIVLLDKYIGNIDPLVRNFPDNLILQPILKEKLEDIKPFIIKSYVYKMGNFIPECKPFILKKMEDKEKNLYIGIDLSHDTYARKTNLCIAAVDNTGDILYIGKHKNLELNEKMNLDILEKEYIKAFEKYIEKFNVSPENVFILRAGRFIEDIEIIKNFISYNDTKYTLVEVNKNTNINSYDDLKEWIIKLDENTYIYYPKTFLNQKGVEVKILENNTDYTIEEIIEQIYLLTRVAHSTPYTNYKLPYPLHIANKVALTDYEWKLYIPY
Experiment: X-ray crystallography (3.2 A); 0.1 M MES pH 7.0, 275 mM KI, 27% PEG 4000; guide RNA 1.2x, target equimolar to guide; Crystallization: 0.1 M MES pH 7.0, 275 mM KI, 27% (w/v) PEG 4000, 18 C; protein about 3.5 mg/ml in complex; mismatch guides assayed by cleavage only (no binding read-out)
Conditions: protein: recombinant; tags: His10-Asn10-MBP tag removed by PreScission protease; 21 nt guide and 21 nt target, fully complementary; in the complex guide nt 1 and target C21 are unpaired, 20 bp modeled

B1: 21 nt RNA guide / 21 nt DNA target (DNA:RNA)
RNA: GGUACAACCUACUACCUCAUU
DNA: AATGAGGTAGTAGGTTGTACC
modifications: 5'-OH RNA guide; 5'-phosphate DNA target
binding result: binds
